For one molecule, IC50 results are on record in patent EP1226177B1 (GENENTECH, INC., dated 2008).

The assay addresses T1, gD-huPSCA expressed on the surface of transfected cells (Herpes Simplex virus; human, UniProt O43653 12-114).
T1 construct: domain: 25 amino acids of the mature gD; also called gD-PSCA; gDPSCA
Put plainly: cold competition of 125I-Mab 2403 by unlabeled Mab 2403 on PC3.gD.hu PSCA cells, four parameter fit (m3 = IC50).

B1: anti-PSCA monoclonal antibody 5F2.4H4.1E3 (antibody, V domains shown)
VH: QVQVQQPGAELVKPGAPVKLSCKASGYTFTNYWLNWVKQRPGRGLEWIGRIDPSDSEIHYDQKFKDKATLTVDKSSSTAYIQLSSLTSEDSAVYYCALTGIYAMAYWGQGTSVTVSS
VL: DIVMTQAAPSVPVTPGESVSISCRSSKSLLHSNGNTYLYWFLQRPGQSPQLLIYRMSNLASGVPDRFSGSGSGTAFTLRISRVEAEDVGVYYCLQHLEYPYTFGGGTKLELKR
notes: also called 2403; Mab 2403
Consider B1, for which the IC50 turned out to be 13 nM.

A word on the IC50: it is the concentration needed to halve the response being measured.
